Assay results from patent US20040266662A1, “Spheroidal hdl particles with a defined phospholipid composition” (priority 2001, published 2004).

Assay: Unfolding of apoA-I by guanidine hydrochloride
Assay type: physicochemical
Method: FIG. 4. Unfolding of apoA-I in spherical (POPC)rHDL, (PLPC)rHDL, (PAPC)rHDL and (PDPC)rHDL. (POPC)rHDL, (PLPC)rHDL, (PAPC)rHDL, (PDPC)rHDL and lipid-free apoA-I were incubated with 0-8 M GdnHCl for 0 (◯), 5 ( ), and 24 (●) h. Values represent the mean of at least three determinations. Experimental errors for the wavelength of maximum fluorescence are ±1.0 nm.
FIG. 5. Kinetics of the unfolding of apoA-I in spherical (POPC)rHDL, (PLPC)rHDL, (PAPC)rHDL and (PDPC)rHDL. Spherical (POPC)rHDL ( ), (PLPC)rHDL ( ), (PAPC)rHDL (●), (PDPC)rHDL ( ) and lipid-free apoA-I (◯) were incubated with 3.5 M GdnHCl for 0-24 h. The wavelengths of maximum fluorescence represent the mean±sd of triplicate determinations.
The unfolding of apoA-I was determined by incubating the rHDL preparations at 25° C. for 0-24 h in the presence of 0-8.0 M guanidine hydrochloride (11).

## lipid-free apoA-I: Apolipoprotein A-I purified from delipidated HDL of pooled human plasma, used as lipid-free comparator
3.5 M GdnHCl, 0-24 h
  rate of unfolding of apoA-I: unfolded rapidly and completely
25° C.
  concentration of GdnHCl required to achieve 50% unfolding of apoA-I: 1.0 M
